Data taken from patent publication US20240392013A1, “IL1RAP ANTIBODIES AND USES THEREOF” (STELEXIS THERAPEUTICS, LLC, priority 2021, published 2024).
Residue numbers refer to the chain shown, from its start.

B1: 74804_12A21B: anti-IL1RAP mAb; VH SEQ ID NO:6, VL SEQ ID NO:23, κ light chain (antibody, V domains shown)
VH: QVQLLQSGAEVKKPGSSVKVSCKASGGTFSIYAIDWVRQAPGQGLEWMGGIIPIFGTANSAQKFQGRVTITADKSTSTAYMELSSLRSEDTAVYYCARNGATSDAFDMWGQGTMVTVSS
VL: EIVLTQSPGTLSLSPGERATLSCRASLSVSSNYLAWFQQRPGQAPRLLIHGVSRRATGIPDRFSGSGSGTDFTLTISRLEPEDFAVYYCQQYGSSPLTFGGGTKVEIK
modifications: 74804_12A21B VH and 74804_29D13A VH; 74804_12A21B VL
B2: 74804_43F04A: anti-IL1RAP mAb; VH SEQ ID NO:7, VL SEQ ID NO:22, κ light chain (antibody, V domains shown)
VH: B1 VH with A58E, K63N, V68I, S77N, M108I, S118F
VL: B1 VL with H50Y
modifications: 74804_43F04A VH; 74804_07K10A VL, 74804_29D13A VL and 74804_43F04A VL

Experiments:
AML cells (patient #6) = test: AML patient-derived sample engraftment in immunodeficient mice; assay type: in vivo, NSG-SGM3 immunodeficient mice
Source text: Methods: NSG™-SGM3 immunodeficient mice (Jackson Laboratory) were irradiated with 200 rads and then infused with AML cells (patient #6) collected from a leukapheresis sample and then treated bi-weekly with three doses of STLX2012 or control IgG1 antibody for 7 weeks. Doses were 1 mpk, 10 mpk, or 30 mpk for STLX2012, and 30 mpk for control IgG1.

AML cells (THP-1) = test: Expression of differentiation markers in AML cells, flow cytometry; assay type: cell-based, human; conditions: 150 μg/ml, 48 hours
Protocol: Methods: AML cells (THP-1) were seeded at 0.5×10^6/well in 6-well plate and were treated with IL1RAP antibody or IgG control at 150 μg/ml for 48 hours. After 48 hours cells were collected, and expression of differentiation markers was monitored by flow cytometry. Cells were stained for CD14 (BD, cat: 325620) and CD15 (Thermo, cat: 17-01-59-42) differentiation markers and data were analyzed with FlowJo.

[1] = system: IL1-induced downstream signaling (phospho-p38, NFκB) in THP-1 cells; test: IL1 signaling in AML (THP-1) cells, Western blot; assay type: cell-based, human; conditions: antibody 20 μg/ml, IL1β 100 ng/ml
Protocol: (§1) AML patient samples or cancer cells (AML, chronic myelogenous leukemia (CML), pancreatic, head and neck squamous cell carcinoma (HNSCC), bladder, non-small-cell lung carcinoma (NSCLC), colorectal and triple-negative breast cancer (TNBC)) were seeded in 6-well plates (5×10^5 cells/well) and incubated overnight at 37° C./5% CO2 in humified incubator. In experiments conducted in cancer cell lines, cells were washed 2× with PBS and serum-starved for 3 hours. Following, cells were treated with IL1RAP antibodies at concentration of 20 μg/ml and incubated for 1 h at 37° C./5% CO2 in humidified incubator. After 1 h, cells were treated with IL1β (Invivogen, cat: rcyec-hil1b), IL33 (Adipogen, cat: AG-40B-0160-C010) or IL36 cytokines (R@D, cat: 6836IL) at 100 ng/ml and incubated for 15 more minutes. Cells were harvested on ice after 1× wash with cold PBS and were centrifuged for 5 minutes at 5000 rpm at 4° C. Cells were then lysed with NP-40 buffer for 5 minutes on ice and centrifuged for 15 minutes at 15000 rpm at 4° C. Supernatants were collected and protein concentrations were determined by BCA (Thermofisher, Cat #PI23225). […] After 3× washes, ECL was applied (Thermofisher, Cat #32106) and proteins were detected after exposure to autoradioraphic films (Worldwide medical products, Cat #41101001) and protein intensity was quantitated using ImageJ software.

THP-1 cells = test: Jurkat-Lucia NFAT-CD16 ADCC reporter assay against THP-1 cells; assay type: cell-based, human; conditions: THP-1 target cells
Source text: Methods: ADCC activity is mediated through binding of NK cell's CD16 receptors to the Fc region of antibodies. A Jurkat-Lucia NFAT-CD16 ADCC Reporter cell assay (Invivogen, Cat #jktl-nfat-cd16; https://www.invivogen.com/jurkat-lucia-nfat-adcc-adcp-cells) was used to analyze IL1RAP mAb STLX2012 for ADCC activity. Briefly, the Jurkat cell line was engineered to express the cell surface Fc receptor CD16A (FcγRIIIA) and the Lucia luciferase reporter gene. ADCC is triggered by CD16A cross-linking upon antigen-bound antibody binding at the surface of immune effector cells. Cells are maintained in the presence of zeocin (100 μg/ml) and blasticidin (10 μg/ml).

[2] = system: AML patient-derived samples; test: Colony formation of AML patient-derived samples, alone or with Azacitidine or Venetoclax; assay type: cell-based, human; conditions: 2 weeks
Protocol: Methods: Clonogenicity of AML patient-derived samples were assayed using STLX2012 alone or in combination with Azacitindine (Aza) or Venetoclax (Ven). AML patient-derived samples were plated in MethoCult media and cultured in the presence of STLX2012 (50 μg/mL) or control IgG1 antibody (50 μg/mL), plus or minus Azacitidine (100 nM) or Venetoclax (100 nM), for 2 weeks. Colony numbers were counted manually using an inverted microscope and normalized to the control IgG1 control.

[3] = system: IL1-induced downstream signaling (phospho-ERK, AKT, p38, NFκB) in A6L, CAL33, 5637, A549, Colo205, HCC70 cells; test: IL1 signaling in solid tumor cancer cells, Western blot; assay type: cell-based; conditions: antibody 20 μg/ml
Protocol: as §1

[4] = system: IL33-induced NFκB activity; test: HEK-BlueIL33 NFκB Reporter Assay; assay type: cell-based, human; conditions: nM range, read-out: IC50, inhibition of IL33-induced NFκB activity
Source text: HEK-Blue IL33 (Invivogen, Cat #hkb-hil33) cell line was used to monitor NFκB activity upon stimulation with IL33 cytokine. The secreted embryonic alkaline phosphatase reporter gene (SEAP) is inducible expressed under the control of IFN-β minimal promoter fused to NFκB/AP-1. HEK-BlueIL33 cells were also generated upon stable transfection with human IL1RL1 (ST2) gene. Specificity to IL33 cytokine was achieved by blockage of TNF-α and IL1 response. Cells are maintained in the presence of hygromycin (200 μg/ml), zeocin (100 μg/ml) and blasticidin (10 μg/ml).
For the functional assay, cells were plated at a density of 5×10^4 cells/well in 96-well plates. Cells were treated with each antibody at the highest concentration of 200 μg/ml followed by seven serial 1:3 dilutions and incubated for 45 minutes at 37° C./5% CO^2 in humified incubator. Cells were then stimulated with IL33 (12 μM) and incubated overnight at 37° C./5% CO2 in humified incubator. Every treatment was conducted in triplicates. Following, supernatants from each well were mixed with Quanti-Blue substrate (Invivogen, Cat #rep-qb1) according to manufacturer's recommendations and secreted SEAP was measured using spectrophotometer at 650 nm.

[5] = day 50, 1, 10, 30 mpk bi-weekly 7 weeks, vs control IgG

IC50 [4] | Molecule | bone marrow (BM) chimerism, dose dependence (AML cells (patient #6); 1, 10, 30 mpk) | human CD45+AML cells in spleens (AML cells (patient #6); [5]) | human CD45+AML cells in the bone marrow (AML cells (patient #6); [5]) | Expression of CD14 differentiation marker (AML cells (THP-1)) | Expression of CD15 differentiation marker (AML cells (THP-1)) | Inhibition of IL1 signaling (phosphorylation of p38 and NFκB) [1] | ADCC activity (reporter) (THP-1 cells) | Colony numbers, combined with Azacitidine ([2]; STLX2012 50 μg/mL + Azacitidine 100 nM) | Colony numbers, combined with Venetoclax ([2]; STLX2012 50 μg/mL + Venetoclax 100 nM) | Colony numbers ([2]; STLX2012 50 μg/mL alone, vs control IgG1) | Inhibition of IL1 signaling (phosphorylation of ERK, AKT, p38 and NFκB) [3]
 | B1 | dose-dependent reduction in bone marrow (BM) chimerism | significantly reduced human CD45+AML cells | significantly reduced human CD45+AML cells | induced the expression | induced the expression | inhibited IL1 signaling in these AML (THP-1) cells | showed ADCC activity | Further reduction in colony numbers | Further reduction in colony numbers | decreased colony numbers in AML patient samples | inhibited IL1 signaling in solid tumor cancer cells
9.62 nM | B2 |  |  |  |  |  |  |  |  |  |  | 
